{
  "source": "paper PMC9259494",
  "test_in_all_cases": "cryo-EM structure; single-particle cryo-EM of the co-purified R388 T4SS complex (VirB3-VirB10); 50 mM HEPES pH 7.6, 200 mM sodium acetate, 0.1% digitonin, 0.05 mM TDAO; maps of O-layer, I-layer, stalk, IMC protomer near-atomic, arches from the 6.18 Å map",
  "key": {"[1]": {"target": "TrwE/VirB10 with Strep tag (R388 T4SS) (plasmid R388)"}, "[2]": {"target": "TrwF/VirB9 (R388 T4SS) (plasmid R388)"}, "[3]": {"target": "TrwG/VirB8 (R388 T4SS) (plasmid R388)"}, "[4]": {"target": "TrwI/VirB6 (R388 T4SS) (plasmid R388)"}, "[5]": {"target": "TrwJ/VirB5 (R388 T4SS) (plasmid R388)"}, "[6]": {"target": "TrwK/VirB4 (R388 T4SS) (plasmid R388)"}},
  "data": [
    {"substance": "TrwE/VirB10 with Strep tag (R388 T4SS) (natural protein)", "values": [
      {"measurement": "stoichiometry N", "setting": "[1]", "result": 14}
    ]},
    {"substance": "TrwF/VirB9 (R388 T4SS) (natural protein)", "values": [
      {"measurement": "stoichiometry N", "setting": "[2]", "result": 16}
    ]},
    {"substance": "TrwG/VirB8 (R388 T4SS) (natural protein)", "values": [
      {"measurement": "stoichiometry N", "setting": "[3]", "result": 18}
    ]},
    {"substance": "TrwI/VirB6 (R388 T4SS) (natural protein)", "values": [
      {"measurement": "stoichiometry N", "setting": "[4]", "result": 5}
    ]},
    {"substance": "TrwJ/VirB5 (R388 T4SS) (natural protein)", "values": [
      {"measurement": "stoichiometry N", "setting": "[5]", "result": 5}
    ]},
    {"substance": "TrwK/VirB4 (R388 T4SS) (natural protein)", "values": [
      {"measurement": "stoichiometry N", "setting": "[6]", "result": 12}
    ]}
  ]
}
